Assay results: patent US20170218081A1 (OHIO STATE INNOVATION FOUNDATION, published 2017)

Columns and labels:
[1] = biological target: T1, Bovine submaxillary mucin (bovine); assay: SPR
T1 construct: Glycoprotein used as the TAG-72-positive antigen in dot blots and SPR; also called BSM; TAG-72 positive mucin

[2] = biological target: T1, Bovine submaxillary mucin; assay: SPR on immobilised BSM
[3] = biological target: T1, Bovine submaxillary mucin; assay: SPR, BSM immobilised on CM5 chip
Protocol: To further confirm the binding data, surface plasmon resonance on 3E8.IgG, CC49.scFv, and 3E8.scFv (FIG. 7c) was determined. […] Next the affinity of the scFv of CC49 was measured. CC49.scFv binds in the mid-nanomolar range with a dissociation constant of 30±8 nM. Finally, SPR was conducted on 3E8.scFv and found it to bind 2-fold better than CC49.scFv and only 4-fold weaker than the bivalent IgG. At 16±4 nM, 3E8.scFv binds better than clinically tested CC49.IgG and scFv variants of CC49, and has more desirable biophysical properties than full-length antibodies.
The binding parameters were evaluated using surface plasmon resonance (SPR). BSM was immobilized on a CM5 dextran sensor chip using the GE Pharmacia amine coupling kit (BR-1000-50). Scouting conditions were 200 μg mL⁻¹ BSM in 100 mM sodium acetate, pH 4 for channel 2, and 10 μg mL⁻¹ BSA in 100 mM sodium acetate, pH 4 for channel 1. The immobilization protocol continued until 700 RU were obtained. Binding was measured as 2-1. Antibody and fragments were dialyzed into 10 mM HEPES, 150 mM NaCl, 3.4 μM EDTA, 0.005% surfactant P20 (GE Healthcare) and were assayed from 0-400 nM. Samples were bound for 120 seconds at 10 μL min⁻¹ and dissociation was measured for 180 seconds. The CM5 chip was regenerated between trials with 6 M guanidine and 200 mM acetic acid with no loss in activity. The average binding parameters were evaluated using the BIAevaluation software.

bovine serum albumin [4] = biological target: T2, bovine serum albumin (bovine, UniProt P02769 25-607); assay: fluorescence dot blot on nitrocellulose
T2 construct: also called BSA
Protocol: Bovine submaxillary mucin is positive for the TAG-72 epitope, sialyl-Tn. To qualitatively assay binding, BSM was spotted on a nitrocellulose membrane and then blocked with bovine serum albumin (BSA). The antibodies and fragments were labeled nonspecifically at lysines with the NHS-ester of fluorescein, and then were added to the dot blots. After gentle washing the samples were imaged using a Typhoon phosphorimager.
Qualitative binding to sialyl-Tn was assayed by dot-blotting. First, 2 μL of 5 mg mL⁻¹ bovine submaxillary mucin (M3895-Sigma) was spotted on a nitrocellulose membrane. The membrane was allowed to dry overnight before blocking with 5 mg mL⁻¹ BSA. After overnight incubation, excess BSA was removed by washing before addition of fluorescein-labeled scFvs. The scFvs were incubated for 3 hours at room temperature before washing. Fluorescence was observed using a Typhoon phosphorimager with 488 nm excitation.

[5] = biological target: T1, Bovine submaxillary mucin; assay: estimate from the competition dot blot on BSM
Protocol: (§1) A similar dot blot experiment was performed using constant concentrations of BSM and fluorescein-labeled 3E8 IgG. The assays were performed with increasing concentrations of unlabeled 3E8.scFv. […] Two negative controls were performed in parallel. […] By 4 μM scFv about half of the IgG is displaced and by […] the dot blot resembles the negative control. This analysis estimates that 3E8.scFv binds approximately 16-fold weaker than 3E8.IgG and both bind the same epitope. The slight loss in affinity is expected since the native IgG is bivalent versus the monovalent scFv.
(§2) The epitope binding of the 3E8.scFv was assayed for its ability to inhibit 3E8.IgG binding. Here, 0.25 μM labeled 3E8.IgG competed with increasing concentrations of nonlabeled 3E8.scFv (0 to 8 μM). The loss of fluorescence was observed using the Typhoon phosphorimager with 488 nm excitation.

[6] = biological target: T1, Bovine submaxillary mucin; assay: estimate from the competition dot blot against labeled 3E8.IgG
[7] = biological target: T1, Bovine submaxillary mucin; assay: competition dot blot; unlabeled scFv against 0.25 µM fluorescein-labeled 3E8 IgG on BSM
Protocol: as §1, §2

bovine serum albumin [8] = biological target: T2, bovine serum albumin; assay: negative control of the competition dot blot, fluorescein-labeled IgG, no BSM
Protocol: as §1, §2

T2 sequence (P02769 25-607 limits assumed): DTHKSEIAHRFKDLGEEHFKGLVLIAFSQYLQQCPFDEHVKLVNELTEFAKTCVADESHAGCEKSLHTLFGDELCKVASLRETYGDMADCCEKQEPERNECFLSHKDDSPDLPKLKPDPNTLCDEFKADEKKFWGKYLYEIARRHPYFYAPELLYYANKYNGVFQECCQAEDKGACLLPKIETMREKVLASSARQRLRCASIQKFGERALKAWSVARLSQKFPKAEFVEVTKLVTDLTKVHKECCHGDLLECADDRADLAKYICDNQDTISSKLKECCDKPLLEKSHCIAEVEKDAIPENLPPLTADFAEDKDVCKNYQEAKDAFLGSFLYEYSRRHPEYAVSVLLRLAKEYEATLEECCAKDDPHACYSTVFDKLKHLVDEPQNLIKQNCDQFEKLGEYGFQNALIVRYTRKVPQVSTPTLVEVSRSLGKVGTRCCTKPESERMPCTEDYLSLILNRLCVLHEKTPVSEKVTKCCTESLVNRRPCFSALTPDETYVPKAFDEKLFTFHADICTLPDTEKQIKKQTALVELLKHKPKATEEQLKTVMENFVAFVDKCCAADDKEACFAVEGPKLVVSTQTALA

B1: 3E8.scFv (scFv)
scFv: GSSGDIVMTQSPDSLAVSLGERATINCKSSQSVLYSSNNKNYLAWYQQKPGQPPKLLIYWASTRESGVPDRFSGSGSGTDFTLTISSLQAEDVAVYYCQQYYSYPLTFGGGTKVEIKLSADDAKKDAAKKDDAKKDDAKKDLQVQLVQSGAEVKKPGASVKVSCKASGYTFTDHAIHWVRQAPGQRLEWMGYFSPGNDDFKYSQKFQGRVTITADKSASTAYMELSSLRSEDTAVYYCARSWIMQYWGQGTLVTVSS
notes: Labelled at lysines with fluorescein for the fluorescence dot blots and with biotin for the HRP dot blot and IHC; also called the scFv of 3E8; 3E8 scFv single chain
Kd [1]: 16.4 nM
Kd [2]: 12 nM
Kd [3]: 16 nM
fold tighter binding than CC49.scFv [3]: 2 fold
fold weaker binding than 3E8 IgG [3]: 4 fold
binding result (bovine serum albumin [4]): no binding
fold weaker binding than 3E8.IgG [5]: ~16 fold
Kd [6]: ~10.4 nM
IC50 [7]: ~4000 nM

B2: 3E8 IgG (antibody, V domains shown)
VH: QVQLVQSGAEVKKPGASVKVSCKASGYTFTDHAIHWVRQAPGQRLEWMGYFSPGNDDFKYSQKFQGRVTITADKSASTAYMELSSLRSEDTAVYYCARSWIMQYWGQGTLVTVSS
VL: not shown
notes: Full-length humanized monoclonal IgG, gift from Enlyton, Ltd; Fluorescein-labelled at lysines in the dot blots; also called the bivalent IgG; full-length 3E8 IgG
Kd [3]: 4 nM
binding result (bovine serum albumin [8]): no binding (tested: 0.25 µM)
